Consider seven molecules from patent US20100048462A1, “TRUNCATED PTH PEPTIDES WITH A CYCLIC CONFORMATION” (Zealand Pharma A/S, priority 2006, published 2010).

Like-named read-outs stand apart in the source and are kept apart here. Bridge positions count the residues as written; N and C are the ends. Square brackets hold non-standard residues; d marks the D form. hArg = N=C(N)NCCCC[C@H](N)C(=O)O; Ac5c = NC1(C(=O)O)CCCC1; Dab = NCC[C@H](N)C(=O)O; Dap = NC[C@H](N)C(=O)O; Aib = CC(C)(N)C(=O)O

The target of assay [1] is CYP2D6 (Homo sapiens, UniProt P10635). As to the kind of experiment: cell-based or functional assay.
Assay [2] deals with Saos-2 PTH1R (UniProt Q03431). The assay is described as follows: cell-based or functional assay.
Saos-2 PTH1R, sequence (Q03431 27-593 limits assumed): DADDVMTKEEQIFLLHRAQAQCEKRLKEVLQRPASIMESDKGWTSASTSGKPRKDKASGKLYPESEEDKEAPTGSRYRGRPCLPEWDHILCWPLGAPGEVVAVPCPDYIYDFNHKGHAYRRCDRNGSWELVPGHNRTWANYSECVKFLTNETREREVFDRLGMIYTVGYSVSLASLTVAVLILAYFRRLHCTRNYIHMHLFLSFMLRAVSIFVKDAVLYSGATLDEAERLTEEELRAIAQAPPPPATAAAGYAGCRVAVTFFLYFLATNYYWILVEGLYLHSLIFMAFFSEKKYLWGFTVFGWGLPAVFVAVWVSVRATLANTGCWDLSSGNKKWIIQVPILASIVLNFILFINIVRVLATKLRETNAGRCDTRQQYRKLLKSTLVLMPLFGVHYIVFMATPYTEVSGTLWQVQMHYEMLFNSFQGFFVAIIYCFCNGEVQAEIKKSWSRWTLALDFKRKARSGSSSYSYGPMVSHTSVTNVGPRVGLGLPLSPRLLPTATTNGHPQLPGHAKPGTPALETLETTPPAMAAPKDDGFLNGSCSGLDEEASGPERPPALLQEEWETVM

CYP2D6, sequence (P10635 whole entry): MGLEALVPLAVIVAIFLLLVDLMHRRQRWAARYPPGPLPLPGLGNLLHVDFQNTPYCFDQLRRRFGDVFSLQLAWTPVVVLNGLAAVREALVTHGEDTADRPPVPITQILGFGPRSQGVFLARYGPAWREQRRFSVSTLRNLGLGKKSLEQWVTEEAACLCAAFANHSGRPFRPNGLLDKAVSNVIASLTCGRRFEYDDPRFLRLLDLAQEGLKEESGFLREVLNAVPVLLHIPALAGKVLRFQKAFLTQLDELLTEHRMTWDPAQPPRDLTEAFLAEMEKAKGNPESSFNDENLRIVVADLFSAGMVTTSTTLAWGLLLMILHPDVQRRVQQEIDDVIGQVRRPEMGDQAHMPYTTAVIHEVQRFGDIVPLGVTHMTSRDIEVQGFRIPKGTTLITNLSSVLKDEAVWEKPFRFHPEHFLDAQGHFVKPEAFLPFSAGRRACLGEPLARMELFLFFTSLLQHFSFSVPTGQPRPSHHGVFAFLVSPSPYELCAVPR

B1: H-Ac5c-Val-Aib-Glu-Ile-Gln-Leu-Met-His-Gln-Har-Ala-Cys( )-Trp-Leu-Asn-Cys( )-NH2 (peptide)
chain: H-[Ac5c]V[Aib]EIQLMHQ[hArg]ACWLNC-NH2
modifications: disulfide 13-17
SMILES: CC[C@H](C)[C@H](NC(=O)[C@H](CCC(=O)O)NC(=O)C(C)(C)NC(=O)[C@@H](NC(=O)C1(N)CCCC1)C(C)C)C(=O)N[C@@H](CCC(N)=O)C(=O)N[C@@H](CC(C)C)C(=O)N[C@@H](CCSC)C(=O)N[C@@H](Cc1c[nH]cn1)C(=O)N[C@@H](CCC(N)=O)C(=O)N[C@@H](CCCCNC(=N)N)C(=O)N[C@@H](C)C(=O)N[C@H]1CSSC[C@@H](C(N)=O)NC(=O)[C@H](CC(N)=O)NC(=O)[C@H](CC(C)C)NC(=O)[C@H](Cc2c[nH]c3ccccc23)NC1=O
For the molecule B1, the CYP2D6 activity (% of vehicle), dextrorphan formation rate in human liver microsomes, 10 µM peptide in assay [1] was 85 % of vehicle. In assay [2], the Emax, cAMP efficacy assay in Saos-2 cells (7T, trifluoroacetate salt) (relative to control (SEQ ID NO: 32)) stood at 1.2 and the pEC50, cAMP efficacy assay in Saos-2 cells (7T, trifluoroacetate salt) is 7.3 -log(M).

B2: H-Ac5c-Val-Aib-Glu-Ile-Gln-Leu-Leu-His-Gln-Har-Ala-Dpr( )-Trp-Leu-Asn-Asp( )-NH2 (peptide)
chain: H-[Ac5c]V[Aib]EIQLLHQ[hArg]A[Dap]WLND-NH2
modifications: lactam 13-17
SMILES: CC[C@H](C)[C@H](NC(=O)[C@H](CCC(=O)O)NC(=O)C(C)(C)NC(=O)[C@@H](NC(=O)C1(N)CCCC1)C(C)C)C(=O)N[C@@H](CCC(N)=O)C(=O)N[C@@H](CC(C)C)C(=O)N[C@@H](CC(C)C)C(=O)N[C@@H](Cc1c[nH]cn1)C(=O)N[C@@H](CCC(N)=O)C(=O)N[C@@H](CCCCNC(=N)N)C(=O)N[C@@H](C)C(=O)N[C@H]1CNC(=O)C[C@@H](C(N)=O)NC(=O)[C@H](CC(N)=O)NC(=O)[C@H](CC(C)C)NC(=O)[C@H](Cc2c[nH]c3ccccc23)NC1=O
Regarding B2, the CYP2D6 activity (% of vehicle), dextrorphan formation rate in human liver microsomes, 10 µM peptide in assay [1] was 101 % of vehicle. In assay [2], the Emax, cAMP efficacy assay in Saos-2 cells (17T, trifluoroacetate salt) (relative to control (SEQ ID NO: 32)) was determined as 1.25 and the pEC50, cAMP efficacy assay in Saos-2 cells (17T, trifluoroacetate salt) is 6.11 -log(M).

B3: H-Ac5c-Val-Aib-Glu-Ile-Gln-Leu-Leu-His-Gln-Har-Ala-Dab( )-Trp-Leu-Asn-Asp( )-NH2 (peptide)
chain: H-[Ac5c]V[Aib]EIQLLHQ[hArg]A[Dab]WLND-NH2
modifications: lactam 13-17
SMILES: CC[C@H](C)[C@H](NC(=O)[C@H](CCC(=O)O)NC(=O)C(C)(C)NC(=O)[C@@H](NC(=O)C1(N)CCCC1)C(C)C)C(=O)N[C@@H](CCC(N)=O)C(=O)N[C@@H](CC(C)C)C(=O)N[C@@H](CC(C)C)C(=O)N[C@@H](Cc1c[nH]cn1)C(=O)N[C@@H](CCC(N)=O)C(=O)N[C@@H](CCCCNC(=N)N)C(=O)N[C@@H](C)C(=O)N[C@H]1CCNC(=O)C[C@@H](C(N)=O)NC(=O)[C@H](CC(N)=O)NC(=O)[C@H](CC(C)C)NC(=O)[C@H](Cc2c[nH]c3ccccc23)NC1=O
On to B3, for which, in assay [1], the CYP2D6 activity (% of vehicle), dextrorphan formation rate in human liver microsomes, 10 µM peptide is 82 % of vehicle. For the same molecule, in assay [2], the Emax, cAMP efficacy assay in Saos-2 cells (41T, trifluoroacetate salt) (relative to control (SEQ ID NO: 32)) is 0.99 and the pEC50, cAMP efficacy assay in Saos-2 cells (41T, trifluoroacetate salt) is 7.19 -log(M).

B4: H-Ac5c-Val-Aib-Glu-Ile-Gln-Leu-Met-His-Gln-Har-Ala-Lys( )-Trp-Leu-Asn-Glu( )-NH2 (peptide)
chain: H-[Ac5c]V[Aib]EIQLMHQ[hArg]AKWLNE-NH2
modifications: lactam 13-17
SMILES: CC[C@H](C)[C@H](NC(=O)[C@H](CCC(=O)O)NC(=O)C(C)(C)NC(=O)[C@@H](NC(=O)C1(N)CCCC1)C(C)C)C(=O)N[C@@H](CCC(N)=O)C(=O)N[C@@H](CC(C)C)C(=O)N[C@@H](CCSC)C(=O)N[C@@H](Cc1c[nH]cn1)C(=O)N[C@@H](CCC(N)=O)C(=O)N[C@@H](CCCCNC(=N)N)C(=O)N[C@@H](C)C(=O)N[C@H]1CCCCNC(=O)CC[C@@H](C(N)=O)NC(=O)[C@H](CC(N)=O)NC(=O)[C@H](CC(C)C)NC(=O)[C@H](Cc2c[nH]c3ccccc23)NC1=O
Take B4: the CYP2D6 activity (% of vehicle), dextrorphan formation rate in human liver microsomes, 10 µM peptide in assay [1] is 85 % of vehicle. Also, in assay [2], the Emax, cAMP efficacy assay in Saos-2 cells (9T, trifluoroacetate salt) (relative to control (SEQ ID NO: 32)) turned out to be 1.03 and the pEC50, cAMP efficacy assay in Saos-2 cells (9T, trifluoroacetate salt) was 7.85 -log(M).

B5: H-Ac5c-V-Aib-…-NH2 (peptide)
chain: H-[Ac5c]V[Aib]EIQLMHNLGKHLNS-NH2
SMILES: CC[C@H](C)[C@H](NC(=O)[C@H](CCC(=O)O)NC(=O)C(C)(C)NC(=O)[C@@H](NC(=O)C1(N)CCCC1)C(C)C)C(=O)N[C@@H](CCC(N)=O)C(=O)N[C@@H](CC(C)C)C(=O)N[C@@H](CCSC)C(=O)N[C@@H](Cc1c[nH]cn1)C(=O)N[C@@H](CC(N)=O)C(=O)N[C@@H](CC(C)C)C(=O)NCC(=O)N[C@@H](CCCCN)C(=O)N[C@@H](Cc1c[nH]cn1)C(=O)N[C@@H](CC(C)C)C(=O)N[C@@H](CC(N)=O)C(=O)N[C@@H](CO)C(N)=O
With B5, the CYP2D6 activity (% of vehicle), dextrorphan formation rate in human liver microsomes, 10 µM peptide in assay [1] is 48 % of vehicle. In assay [2], the Emax, cAMP efficacy assay in Saos-2 cells (35T, trifluoroacetate salt) (relative to control (SEQ ID NO: 32)) was found to be 1.2 and the pEC50, cAMP efficacy assay in Saos-2 cells (35T, trifluoroacetate salt) was 5.09 -log(M).

B6: H-Ac5c-Val-Aib-Glu-Ile-Gln-Leu-Met-His-Asn-Leu-Gly-Lys-His-Leu-Asn-Asp-NH2 (peptide)
chain: H-[Ac5c]V[Aib]EIQLMHNLGKHLND-NH2
SMILES: CC[C@H](C)[C@H](NC(=O)[C@H](CCC(=O)O)NC(=O)C(C)(C)NC(=O)[C@@H](NC(=O)C1(N)CCCC1)C(C)C)C(=O)N[C@@H](CCC(N)=O)C(=O)N[C@@H](CC(C)C)C(=O)N[C@@H](CCSC)C(=O)N[C@@H](Cc1c[nH]cn1)C(=O)N[C@@H](CC(N)=O)C(=O)N[C@@H](CC(C)C)C(=O)NCC(=O)N[C@@H](CCCCN)C(=O)N[C@@H](Cc1c[nH]cn1)C(=O)N[C@@H](CC(C)C)C(=O)N[C@@H](CC(N)=O)C(=O)N[C@@H](CC(=O)O)C(N)=O
As for B6, the CYP2D6 activity (% of vehicle), dextrorphan formation rate in human liver microsomes, 10 µM peptide in assay [1] is 57 % of vehicle. Besides, the CYP2D6 activity (% of vehicle), dextrorphan formation rate in human liver microsomes, 10 µM peptide in assay [1] (record 2) is 107 % of vehicle. Besides, in assay [2], the Emax, cAMP efficacy assay in Saos-2 cells (34T, trifluoroacetate salt) (relative to control (SEQ ID NO: 32)) worked out at 1.12 and the pEC50, cAMP efficacy assay in Saos-2 cells (34T, trifluoroacetate salt) is 6.67 -log(M).
Take H-[Ac5c]V[Aib]EIQLLHQ[hArg]AKWLND-NH2 (lactam 13-17; also: acetate and trifluoroacetate salts) [H-Ac5c-Val-Aib-Glu-Ile-Gln-Leu-Leu-His-Gln-Har-Ala-Lys( )-Trp-Leu-Asn-Asp( )-NH2]: in assay [1], the CYP2D6 activity (% of vehicle), dextrorphan formation rate in human liver microsomes, 10 µM peptide is 90 % of vehicle. In assay [2], the Emax, cAMP efficacy assay in Saos-2 cells (19A/T, acetate/trifluoroacetate salts) (relative to control (SEQ ID NO: 32)) amounted to 1.05 and the pEC50, cAMP efficacy assay in Saos-2 cells (19A/T, acetate/trifluoroacetate salts) is 7.99 -log(M).
